Reference: US20230203108

T1: Recombinant Human Serpin B9/SERPINB9 (C-6His) (Novoprotein, CJ32), P50453
T1 chain: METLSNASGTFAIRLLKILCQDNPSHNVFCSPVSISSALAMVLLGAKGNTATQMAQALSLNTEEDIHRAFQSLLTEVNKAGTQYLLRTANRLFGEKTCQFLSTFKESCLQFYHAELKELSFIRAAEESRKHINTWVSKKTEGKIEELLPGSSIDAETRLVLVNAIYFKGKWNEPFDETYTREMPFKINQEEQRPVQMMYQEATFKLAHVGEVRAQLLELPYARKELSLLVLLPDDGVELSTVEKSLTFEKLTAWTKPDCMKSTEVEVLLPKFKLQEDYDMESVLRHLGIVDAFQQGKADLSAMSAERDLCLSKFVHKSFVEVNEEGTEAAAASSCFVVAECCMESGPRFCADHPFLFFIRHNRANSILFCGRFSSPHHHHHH

B1: granzyme B variant K44F, L46E, K155P, K172L, S175I, K200R (protein)
chain: IIGGHEAKPHSRPYMAYLMIWDQFSEKRCGGFLIRDDFVLTAAHCWGSSINVTLGAHNIKEQEPTQQFIPVKRPIPHPAYNPKNFSNDIMLLQLERKAKRTRAVQPLRLPSNKAQVKPGQTCSVAGWGQTAPLGPHSHTLQEVKMTVQEDRLCEIDLRHYYDSTIELCVGDPEIKKTSFRGDSGGPLVCNKVAQGIVSYGRNNGMPPRACTKVSSFVHWIKKTMKRY
B2: granzyme B variant K44F, L46I, K155P, K172L, S175I, K200R (protein)
chain: IIGGHEAKPHSRPYMAYLMIWDQFSIKRCGGFLIRDDFVLTAAHCWGSSINVTLGAHNIKEQEPTQQFIPVKRPIPHPAYNPKNFSNDIMLLQLERKAKRTRAVQPLRLPSNKAQVKPGQTCSVAGWGQTAPLGPHSHTLQEVKMTVQEDRLCEIDLRHYYDSTIELCVGDPEIKKTSFRGDSGGPLVCNKVAQGIVSYGRNNGMPPRACTKVSSFVHWIKKTMKRY
B3: granzyme B variant K44F, L46Q, K155P, K172L, S175I, K200R (protein)
chain: IIGGHEAKPHSRPYMAYLMIWDQFSQKRCGGFLIRDDFVLTAAHCWGSSINVTLGAHNIKEQEPTQQFIPVKRPIPHPAYNPKNFSNDIMLLQLERKAKRTRAVQPLRLPSNKAQVKPGQTCSVAGWGQTAPLGPHSHTLQEVKMTVQEDRLCEIDLRHYYDSTIELCVGDPEIKKTSFRGDSGGPLVCNKVAQGIVSYGRNNGMPPRACTKVSSFVHWIKKTMKRY
B4: granzyme B variant K44L, L46I, K155P, K172L, S175I, K200R (protein)
chain: IIGGHEAKPHSRPYMAYLMIWDQLSIKRCGGFLIRDDFVLTAAHCWGSSINVTLGAHNIKEQEPTQQFIPVKRPIPHPAYNPKNFSNDIMLLQLERKAKRTRAVQPLRLPSNKAQVKPGQTCSVAGWGQTAPLGPHSHTLQEVKMTVQEDRLCEIDLRHYYDSTIELCVGDPEIKKTSFRGDSGGPLVCNKVAQGIVSYGRNNGMPPRACTKVSSFVHWIKKTMKRY
B5: granzyme B variant K44L, L46E, K155P, K172L, S175I, K200R (protein)
chain: IIGGHEAKPHSRPYMAYLMIWDQLSEKRCGGFLIRDDFVLTAAHCWGSSINVTLGAHNIKEQEPTQQFIPVKRPIPHPAYNPKNFSNDIMLLQLERKAKRTRAVQPLRLPSNKAQVKPGQTCSVAGWGQTAPLGPHSHTLQEVKMTVQEDRLCEIDLRHYYDSTIELCVGDPEIKKTSFRGDSGGPLVCNKVAQGIVSYGRNNGMPPRACTKVSSFVHWIKKTMKRY
B6: granzyme B variant K44L, R48K, K155P, K172L, S175I, K200R (protein)
chain: IIGGHEAKPHSRPYMAYLMIWDQLSLKKCGGFLIRDDFVLTAAHCWGSSINVTLGAHNIKEQEPTQQFIPVKRPIPHPAYNPKNFSNDIMLLQLERKAKRTRAVQPLRLPSNKAQVKPGQTCSVAGWGQTAPLGPHSHTLQEVKMTVQEDRLCEIDLRHYYDSTIELCVGDPEIKKTSFRGDSGGPLVCNKVAQGIVSYGRNNGMPPRACTKVSSFVHWIKKTMKRY
B7: granzyme B variant K44L, L46F, K155P, K172L, S175I, K200R (protein)
chain: IIGGHEAKPHSRPYMAYLMIWDQLSFKRCGGFLIRDDFVLTAAHCWGSSINVTLGAHNIKEQEPTQQFIPVKRPIPHPAYNPKNFSNDIMLLQLERKAKRTRAVQPLRLPSNKAQVKPGQTCSVAGWGQTAPLGPHSHTLQEVKMTVQEDRLCEIDLRHYYDSTIELCVGDPEIKKTSFRGDSGGPLVCNKVAQGIVSYGRNNGMPPRACTKVSSFVHWIKKTMKRY
B8: granzyme B variant K44F, R48K, K155P, K172L, S175I, K200R (protein)
chain: IIGGHEAKPHSRPYMAYLMIWDQFSLKKCGGFLIRDDFVLTAAHCWGSSINVTLGAHNIKEQEPTQQFIPVKRPIPHPAYNPKNFSNDIMLLQLERKAKRTRAVQPLRLPSNKAQVKPGQTCSVAGWGQTAPLGPHSHTLQEVKMTVQEDRLCEIDLRHYYDSTIELCVGDPEIKKTSFRGDSGGPLVCNKVAQGIVSYGRNNGMPPRACTKVSSFVHWIKKTMKRY
B9: granzyme B variant K44L, R48E, K155P, K172L, S175I, K200R (protein)
chain: IIGGHEAKPHSRPYMAYLMIWDQLSLKECGGFLIRDDFVLTAAHCWGSSINVTLGAHNIKEQEPTQQFIPVKRPIPHPAYNPKNFSNDIMLLQLERKAKRTRAVQPLRLPSNKAQVKPGQTCSVAGWGQTAPLGPHSHTLQEVKMTVQEDRLCEIDLRHYYDSTIELCVGDPEIKKTSFRGDSGGPLVCNKVAQGIVSYGRNNGMPPRACTKVSSFVHWIKKTMKRY
B10: granzyme B variant K44F, L46F, K155P, K172L, S175I, K200R (protein)
chain: IIGGHEAKPHSRPYMAYLMIWDQFSFKRCGGFLIRDDFVLTAAHCWGSSINVTLGAHNIKEQEPTQQFIPVKRPIPHPAYNPKNFSNDIMLLQLERKAKRTRAVQPLRLPSNKAQVKPGQTCSVAGWGQTAPLGPHSHTLQEVKMTVQEDRLCEIDLRHYYDSTIELCVGDPEIKKTSFRGDSGGPLVCNKVAQGIVSYGRNNGMPPRACTKVSSFVHWIKKTMKRY
B11: granzyme B variant K44L, L46Q, K155P, K172L, S175I, K200R (protein)
chain: IIGGHEAKPHSRPYMAYLMIWDQLSQKRCGGFLIRDDFVLTAAHCWGSSINVTLGAHNIKEQEPTQQFIPVKRPIPHPAYNPKNFSNDIMLLQLERKAKRTRAVQPLRLPSNKAQVKPGQTCSVAGWGQTAPLGPHSHTLQEVKMTVQEDRLCEIDLRHYYDSTIELCVGDPEIKKTSFRGDSGGPLVCNKVAQGIVSYGRNNGMPPRACTKVSSFVHWIKKTMKRY
B12: granzyme B variant K44F, R48E, K155P, K172L, S175I, K200R (protein)
chain: IIGGHEAKPHSRPYMAYLMIWDQFSLKECGGFLIRDDFVLTAAHCWGSSINVTLGAHNIKEQEPTQQFIPVKRPIPHPAYNPKNFSNDIMLLQLERKAKRTRAVQPLRLPSNKAQVKPGQTCSVAGWGQTAPLGPHSHTLQEVKMTVQEDRLCEIDLRHYYDSTIELCVGDPEIKKTSFRGDSGGPLVCNKVAQGIVSYGRNNGMPPRACTKVSSFVHWIKKTMKRY

Molecular target: T1, Recombinant Human Serpin B9/SERPINB9 …
With B1 the “protease activity (cleavage of Ac-IEPD-pNA, absorbance at 405 nm) after 1 h at 37 C with 0.5 uM PI-9, relative to wild-type granzyme B” value was “the variants maintained high protease activity even in the presence of inhibitors”.
B2 was tested, and the “protease activity (cleavage of Ac-IEPD-pNA, absorbance at 405 nm) after 1 h at 37 C with 0.5 uM PI-9, relative to wild-type granzyme B” value was “the variants maintained high protease activity even in the presence of inhibitors”.
B3 was tested, and the “protease activity (cleavage of Ac-IEPD-pNA, absorbance at 405 nm) after 1 h at 37 C with 0.5 uM PI-9, relative to wild-type granzyme B” value was “the variants maintained high protease activity even in the presence of inhibitors”.
For B4, the “protease activity (cleavage of Ac-IEPD-pNA, absorbance at 405 nm) after 1 h at 37 C with 0.5 uM PI-9, relative to wild-type granzyme B” value was “the variants maintained high protease activity even in the presence of inhibitors”.
In the case of B5, the “protease activity (cleavage of Ac-IEPD-pNA, absorbance at 405 nm) after 1 h at 37 C with 0.5 uM PI-9, relative to wild-type granzyme B” value is reported as “the variants maintained high protease activity even in the presence of inhibitors”.
For B6, the “protease activity (cleavage of Ac-IEPD-pNA, absorbance at 405 nm) after 1 h at 37 C with 0.5 uM PI-9, relative to wild-type granzyme B” value was “the variants maintained high protease activity even in the presence of inhibitors”.
In the case of B7, the “protease activity (cleavage of Ac-IEPD-pNA, absorbance at 405 nm) after 1 h at 37 C with 0.5 uM PI-9, relative to wild-type granzyme B” value is reported as “the variants maintained high protease activity even in the presence of inhibitors”.
For B8, the “protease activity (cleavage of Ac-IEPD-pNA, absorbance at 405 nm) after 1 h at 37 C with 0.5 uM PI-9, relative to wild-type granzyme B” value was “the variants maintained high protease activity even in the presence of inhibitors”.
B9 was tested, and the “protease activity (cleavage of Ac-IEPD-pNA, absorbance at 405 nm) after 1 h at 37 C with 0.5 uM PI-9, relative to wild-type granzyme B” value was “the variants maintained high protease activity even in the presence of inhibitors”.
B10 was tested, and the “protease activity (cleavage of Ac-IEPD-pNA, absorbance at 405 nm) after 1 h at 37 C with 0.5 uM PI-9, relative to wild-type granzyme B” value was “the variants maintained high protease activity even in the presence of inhibitors”.
B11 was tested, and the “protease activity (cleavage of Ac-IEPD-pNA, absorbance at 405 nm) after 1 h at 37 C with 0.5 uM PI-9, relative to wild-type granzyme B” value was “the variants maintained high protease activity even in the presence of inhibitors”.
For B12, the “protease activity (cleavage of Ac-IEPD-pNA, absorbance at 405 nm) after 1 h at 37 C with 0.5 uM PI-9, relative to wild-type granzyme B” value was “the variants maintained high protease activity even in the presence of inhibitors”.
